According to patent publication US20250042992A1 (University of California, published 2025):

T1: rat DLK1 fused to mGFP, overexpressed on HEK293T cells (rat, UniProt O70534 24-383)
T1 construct: whole, on cells; not shown: mGFP fluorescent protein fused to DLK1
T1 sequence (looked up): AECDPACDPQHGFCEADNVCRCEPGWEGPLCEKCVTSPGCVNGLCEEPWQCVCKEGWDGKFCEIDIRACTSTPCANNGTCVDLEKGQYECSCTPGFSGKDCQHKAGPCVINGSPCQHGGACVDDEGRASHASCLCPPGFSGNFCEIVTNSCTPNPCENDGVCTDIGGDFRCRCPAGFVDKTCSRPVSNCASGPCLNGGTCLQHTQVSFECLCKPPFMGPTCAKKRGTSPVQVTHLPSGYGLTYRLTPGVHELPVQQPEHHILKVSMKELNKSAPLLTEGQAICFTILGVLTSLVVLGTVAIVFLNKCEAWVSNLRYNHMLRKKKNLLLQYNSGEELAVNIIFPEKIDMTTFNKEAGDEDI

T2: mouse DLK1 fused to mGFP, overexpressed on HEK293T cells (mouse, UniProt Q09163 24-385)
T2 construct: not shown: mGFP fluorescent protein fused to DLK1
T2 sequence: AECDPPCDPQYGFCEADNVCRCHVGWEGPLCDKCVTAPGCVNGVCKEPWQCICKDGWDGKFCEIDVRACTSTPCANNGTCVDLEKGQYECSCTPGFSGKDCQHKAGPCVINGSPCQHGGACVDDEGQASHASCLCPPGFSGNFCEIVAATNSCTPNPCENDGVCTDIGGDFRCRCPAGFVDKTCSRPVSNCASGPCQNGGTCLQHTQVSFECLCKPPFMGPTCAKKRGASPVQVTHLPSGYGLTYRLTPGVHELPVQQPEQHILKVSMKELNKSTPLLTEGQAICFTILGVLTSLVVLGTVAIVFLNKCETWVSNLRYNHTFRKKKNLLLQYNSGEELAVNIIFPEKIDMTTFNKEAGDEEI

T3: monkey DLK1 fused to mGFP, overexpressed on HEK293T cells (monkey (crab-eating macaque), UniProt A0A2K5TMQ6 24-383)
T3 construct: whole, on cells; also called crab-eating macaque DLK1; not shown: mGFP fluorescent protein fused to DLK1
T3 sequence: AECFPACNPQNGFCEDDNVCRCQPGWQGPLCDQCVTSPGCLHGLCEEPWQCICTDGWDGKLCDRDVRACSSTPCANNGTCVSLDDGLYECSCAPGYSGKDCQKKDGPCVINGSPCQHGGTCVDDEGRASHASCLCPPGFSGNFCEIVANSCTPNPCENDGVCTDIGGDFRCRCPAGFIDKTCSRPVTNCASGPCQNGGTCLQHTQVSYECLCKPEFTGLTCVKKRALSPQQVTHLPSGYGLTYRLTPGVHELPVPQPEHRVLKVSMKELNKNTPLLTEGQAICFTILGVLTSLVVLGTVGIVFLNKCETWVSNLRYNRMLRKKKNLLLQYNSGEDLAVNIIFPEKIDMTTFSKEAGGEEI

T4: DLK1 ECD-mFc long form (human DLK1-FL, isoform 1) (human, UniProt P80370 24-303)
T4 construct: also called long form of the human DLK1 protein (ELISA coat); not shown: mFc (monomeric immunoglobulin Fc domain)
T4 sequence: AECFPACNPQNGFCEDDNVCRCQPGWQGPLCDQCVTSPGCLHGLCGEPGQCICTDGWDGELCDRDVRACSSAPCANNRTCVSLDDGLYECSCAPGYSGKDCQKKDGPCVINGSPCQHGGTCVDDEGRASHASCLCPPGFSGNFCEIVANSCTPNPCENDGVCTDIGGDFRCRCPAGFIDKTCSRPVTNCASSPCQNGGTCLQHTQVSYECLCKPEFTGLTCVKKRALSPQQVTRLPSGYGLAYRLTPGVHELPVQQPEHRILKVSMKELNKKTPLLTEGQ


Tests used:
[1] = target: T1, rat DLK1 fused to mGFP, overexpressed …; assay: KinExA on cells, row HEK293T Rat DLK1mGFP mass pop
[2] = target: human DLK1 endogenously expressed on COR-L279 small cell lung carcinoma cells (human) (UniProt P80370); assay: KinExA on cells, row CORL-279 cells(adherent)
[3] = target: T2, mouse DLK1 fused to mGFP, overexpressed …; assay: KinExA on cells, row HEK293T Mouse DLK1mGFP mass
[4] = target: T2, mouse DLK1 fused to mGFP, overexpressed …; assay: KinExA on HEK293T DLK1mGFP Mouse mass pop cells detached by Versene; Error% 3.08; 95% CI 4.21nM - 26.32nM; equilibrium curves 400pM, 50nM
[5] = target: human DLK1-overexpressed on surface of HEK293T cells or DLK1-positive COR-L279 cells; assay: affinity on cells (HEK293T overexpressing human DLK1 or COR-L279); method not stated in the sentence (KinExA is named for FIG. 11)
[6] = target: human DLK1 endogenously expressed on COR-L279 small cell lung carcinoma cells (human) (UniProt P80370); assay: flow cytometry, antibody at 20µg/ml, row CORL-279 (SCLC, DLK+); row M202 of the same block: 5,208.0
[7] = target: T3, monkey DLK1 fused to mGFP, …; assay: KinExA on HEK293T DLK1mGFP Monkey mass pop cells detached by Versene; Error% 2.87; 95% CI 1.33nM - 3.45nM; equilibrium curves 400pM, 50nM
[8] = target: T2, mouse DLK1 fused to mGFP, overexpressed …; assay: flow cytometry, row HEK293T Mouse DLK1mGFP mass
[9] = target: T4, DLK1 ECD-mFc long form (human DLK1-FL, …); assay: ELISA, plate coated with DLK1 ECD-mFc long form
Method: Plates were incubated with DLK1 Abs serially diluted 2-fold starting from 400 ng/ml in 5% BSA/PBS at RT for 1.5 hrs. Mouse anti-human IgG Fc secondary antibody conjugated to HRP (Novus catalog number: NBP1-78623H) at 1:3000 dilution was applied to each well at 50 μl/well and further incubated at RT for 1 hr. The ELISA was developed first with Thermo Scientific Pierce 1-Step™ Ultra TMB-ELISA substrate solution and then with addition of sulfuric acid stop solution. The ELISA plate was read on a plate reader at 450 nm.

[10] = target: either the long or short form of the human DLK1 protein (DLK1 ECD-mFc long form or short form, ELISA coat); assay: ELISA, plates coated with DLK1 ECD-mFc long form or short form, anti-human IgG Fc-HRP detection
[11] = target: T1, rat DLK1 fused to mGFP, overexpressed …; assay: flow cytometry, row HEK293T Rat DLK1mGFP mass pop

Kd [1] [nM]	Kd [2] [nM]	Kd [3] [nM]	Kd [4] [nM]	Kd [5] [nM]	Antibody Binding Activity by Flow Cytometry (20µg/ml) [6]	Kd [7] [nM]	binding result [8]	fold higher binding affinity than LegoChem 18A5 antibody for human DLK1-FL [9] [fold]	EC50 [10] [nM]	binding result [11]	Binder
5.96	8.2	13	13	5 to 9	186000						humanized anti-DLK1 antibody 04-0547-h2 (IgG1) (antibody, V domains shown, human kappa (P01834) and human IgG1 (P01857) constant regions) VH: EVQLVESGGGLVQPGGSLRLSCAASGFSISDYYMAWVRQAPGKGLEWVANINYDGTNTYYADSVKGRFTISRDNSKNTLYLQMNSLRAEDTAVYYCVRSYYYYGMEYWGQGTTVTVSS VL: DIQMTQSPSSLSASVGDRVTITCRASHDVSTAVAWYQQKPGKAPKLLIYSASYRYTGVPSRFSGSGSGTDFTLTISSLQPEDFATYYCQQHYRIPLTFGQGTKLEIK
						2.19	no binding (tested: 20µg/ml)	> 20	0.81 to 0.87	no binding (tested: 20µg/ml)	humanized anti-DLK1 antibody 04-0561-F1 (IgG1) (antibody, V domains shown) VH: QVQLQESGPGLVKPSETLSLTCTVSGFSLSIYSVHWVRQPPGKGLEWIGLIWGGGSTDYNPSLKSRVTISKDTSKNQVSLKLSSVTAADTAVYYCARKEGNYLWFAYWGQGTLVTVSS VL: DIVMTQSPDSLAVSLGERVTMNCKSSQSLLQSSNQKNYLAWYQQKPGQPPKLLVYFASTRESGVPDRFSGSGSGTDFTLTISSVQAEDVAVYYCQQHYSIPLTFGQGTKLEIKR
